Experimental findings from PMC10397247 are described below.

What all share (assay): two-hybrid library CCNG1;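 note: natural log of median RNA to DNA barcode read ratio; higher means stronger binding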
In test [1] the target is T1, 4H953-bH.
T1 chain: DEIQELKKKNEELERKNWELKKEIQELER

Test [2] addresses T2, 4H754-bH.
T2 chain: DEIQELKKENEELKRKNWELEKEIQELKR

The target in test [3] is T3, 4H370-bN.
T3 chain: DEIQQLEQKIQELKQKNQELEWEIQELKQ

Test [4] addresses T4, 4H2627-bH.
T4 chain: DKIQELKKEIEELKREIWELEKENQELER

For test [5], the target named is T5, 4H3354-bH.
T5 chain: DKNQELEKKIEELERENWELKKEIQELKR

In test [6] the target is T6, 4H855-bH.
T6 chain: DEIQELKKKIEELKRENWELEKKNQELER

Test [7] deals with T7, 4H918-bH.
T7 chain: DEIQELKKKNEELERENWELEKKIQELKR

In test [8] the target is T8, 4H683-bH.
T8 chain: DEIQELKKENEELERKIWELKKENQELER

In test [9] the target is T9, 4H3926-bH.
T9 chain: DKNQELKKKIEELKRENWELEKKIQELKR

Test [10] addresses T10, 4H797-bH.
T10 chain: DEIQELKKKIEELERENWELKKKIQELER

Test [11] concerns the target T11, 4H2702-bH.
T11 chain: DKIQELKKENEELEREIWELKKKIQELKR

Test [12] deals with T12, 4H2673-bH.
T12 chain: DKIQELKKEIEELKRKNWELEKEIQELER

For test [13], the target named is T13, 4H3427-bH.
T13 chain: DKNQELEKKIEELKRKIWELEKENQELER

For test [14], the target named is T14, 4H575-bH.
T14 chain: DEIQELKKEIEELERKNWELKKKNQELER

Test [15] has as its target T15, 4H4073-bH.
T15 chain: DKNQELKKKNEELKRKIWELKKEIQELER

Test [16] has as its target T16, 4H3112-bH.
T16 chain: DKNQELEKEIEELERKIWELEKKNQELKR

In test [17] the target is T17, 4H457-bH.
T17 chain: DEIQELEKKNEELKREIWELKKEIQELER

Test [18] concerns the target T18, 4H346-bH.
T18 chain: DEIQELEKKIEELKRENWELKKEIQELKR

For test [19], the target named is T19, 4H3010-bH.
T19 chain: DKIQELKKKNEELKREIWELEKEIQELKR

Test [20] concerns the target T20, 4H968-bH.
T20 chain: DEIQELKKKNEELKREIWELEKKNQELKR

Test [21] addresses T21, 4H780-bH.
T21 chain: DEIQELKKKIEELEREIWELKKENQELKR

The target in test [22] is T22, 4H2586-bH.
T22 chain: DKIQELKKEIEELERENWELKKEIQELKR

In test [23] the target is T23, 4H496-bA.
T23 chain: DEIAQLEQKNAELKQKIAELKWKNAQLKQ

Test [24] concerns the target T24, 4H3632-bA.
T24 chain: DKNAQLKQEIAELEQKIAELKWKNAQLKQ

Regarding DKIQELKKEIEELERENWELKKEIQELKR [4H2586-bH], the interaction score in test [1] is 0.313; in [2] it was -0.599; in [3], 0.548; in test [4], 0.688; in [5], 0.825; in test [6], 0.679. Further, the interaction score in test [7] is -0.131; in test [8], 0.126; in [9], 1.73; in test [10], 0.65; in test [11], 0.0111; in [12], 1.76. The interaction score in [13] is 0.762; in test [14], 0.499; in test [15], 0.357; in [16] it was -1.96; in test [17], -0.749; in test [18] it was 0.563. In addition, the interaction score in test [19] was 0.779; in [20], -0.864; in test [21], -1.12; in [22] it was 1.34.

With DKNAQLKQEIAELEQKIAELKWKNAQLKQ [4H3632-bA], the interaction score in test [23] came to 0.728; in test [24], 1.23.
